Our source for the activity (% CD38-negative cells) values is patent US20200208174.

Data set [1] deals with CD38 TALEN Left (artificial) (UniProt Q56830). Put plainly: cell_activity. The note with it: paired with CD38 TALEN Right; simultaneous electroporation with TRAC and CD52 TALEN.
Data set [2] has as its target CD38 TALEN Right (artificial) (UniProt Q56830). Put plainly: cell_activity. The conditions noted are these: paired with CD38 TALEN Left; simultaneous electroporation with TRAC and CD52 TALEN.

On to CD38 left half-site, for which the activity (% CD38-negative cells) in data set [1] amounted to 66.1.

CD38 right half-site yielded an activity (% CD38-negative cells) in data set [2] of 66.1.
